This is an account of results in paper PMC7901475.

The series deals with T1, PsdR (Pseudomonas aeruginosa PAO1?) (UniProt Q9HVS2).
T1 sequence: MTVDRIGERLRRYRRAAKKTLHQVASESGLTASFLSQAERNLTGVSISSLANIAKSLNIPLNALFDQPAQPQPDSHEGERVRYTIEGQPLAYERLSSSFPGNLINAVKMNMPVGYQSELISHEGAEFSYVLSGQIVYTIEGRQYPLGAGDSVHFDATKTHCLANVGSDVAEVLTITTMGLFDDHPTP
The series can be described thus: EMSA. The conditions noted are these: EMSA: 0.5 nM Cy5 probe, 10 mM Tris-HCl pH 8, 50 mM KCl, 10 mM MgCl2, 10% glycerol, 0.1 mg/ml BSA, 25 ng/ul poly(dI-dC), 15 min at 25 C; competition with 100 nM …. On the technique in general: A gel shift assay detects complexes by their altered migration in electrophoresis.

Take “CCCGAACCCCTATTTTTAAGTGTGACTGAAAATTTGTTTTGACCTGAATCAGTTCTCGACTTAAATTTCAGCCCGGTCCAGACGAGGAGAACA (double strand) [pPA4498 (mdpA promoter) half-site mutant]”: the binding entry was “binds more weakly”.
Consider “CCCGAACCCCTATTTTTAAGTGTGACTGAAAATTTGTTTTGACCTGAATTTAAGCTCGACTTAAATTTCAGCCCGGTCCAGACGAGGAGAACA (double strand) [pPA4498 (mdpA promoter) wild type]”, for which the binding entry is given as “binds”.
